Like-named read-outs stand apart in the source and are kept apart here.
Legend:
[1] = target: T1, hemagglutinin (HA) of influenza B virus B/Florida (Yamagata lineage) (influenza B virus B/Florida/06 …); experiment: recombinant HA ELISA (AttoPhos fluorescence, mean of triplicates)
[2] = target: T2, hemagglutinin (HA) of influenza B virus B/Malaysia (Victoria lineage) (influenza B virus B/Malaysia/04 …); experiment: as above
[3] = target: recombinant HA of influenza B virus B/Wisconsin/10 (Yamagata clade) (influenza B virus B/Wisconsin/10 …); experiment: as above
[4] = target: recombinant HA of influenza B virus B/Mass/12 (Yamagata clade) (influenza B virus B/Mass/12 (Yamagata …)); experiment: as above
[5] = target: recombinant HA of influenza B virus B/Brisbane/08 (Victoria clade) (influenza B virus B/Brisbane/08 …); experiment: as above
[6] = target: T2, hemagglutinin (HA) of influenza B virus …; experiment: affinity determination (method not stated there; data not shown)
[7] = target: T1, hemagglutinin (HA) of influenza B virus …
[8] = target: T2, hemagglutinin (HA) of influenza B virus …
[9] = target: H2 Japan/305/1957 HA monomer (influenza A virus H2 Japan/305/1957, UniProt P03451 16-525); experiment: kinetic binding to HA monomer (instrument not stated)
[10] = target: hemagglutinin of influenza A virus A/CA/04/09 (H1), on virus (influenza A virus H1 A/CA/04/09); experiment: cell-based or functional assay
[11] = target: hemagglutinin of influenza A virus A/Mallard/MN/182753/98 (H9), on virus (influenza A virus H9 …); experiment: cell-based or functional assay
[12] = target: hemagglutinin of influenza A virus A/mallard/MN/AI08-3881/08 (H2), on virus (influenza A virus H2 …); experiment: cell-based or functional assay
[13] = target: hemagglutinin of influenza A virus A/Udorn/307/1976, on virus (influenza A virus A/Udorn/307/1976); experiment: cell-based or functional assay
[14] = target: hemagglutinin of influenza A virus A/New York/55/2004, on virus (influenza A virus A/New York/55/2004); experiment: cell-based or functional assay
[15] = target: hemagglutinin of influenza A virus A/Wisconsin/67/2005, on virus (influenza A virus A/Wisconsin/67/2005); experiment: cell-based or functional assay
[16] = target: hemagglutinin of influenza A virus A/Netherlands/219/03, on virus (influenza A virus A/Netherlands/219/03); experiment: cell-based or functional assay
[17] = target: hemagglutinin of influenza A virus A/HongKong/68, on virus (influenza A virus A/HongKong/68); experiment: cell-based or functional assay
[18] = target: hemagglutinin of influenza A virus A/Bufflehead (H4), on virus (influenza A virus H4 A/Bufflehead); experiment: cell-based or functional assay
[19] = target: hemagglutinin of influenza A virus A/SW/MN/02719, on virus (influenza A virus A/SW/MN/02719); experiment: cell-based or functional assay
[20] = target: hemagglutinin of influenza A virus A/Philippines/2/82 x-79, on virus (influenza A virus A/Philippines/2/82 …); experiment: cell-based or functional assay
[21] = target: hemagglutinin of influenza A virus A/Canada/rv444/04 (H7), on virus (influenza A virus H7 A/Canada/rv444/04); experiment: cell-based or functional assay
[22] = target: hemagglutinin of influenza A virus A/Northern Shoveler (H10), on virus (influenza A virus H10 A/Northern …); experiment: cell-based or functional assay
[23] = target: hemagglutinin of influenza A virus A/Perth/16/2009 (H3), on virus (influenza A virus H3 A/Perth/16/2009); experiment: cell-based or functional assay
[24] = target: T3, H3 Hong Kong/8/68 HA trimer (influenza A virus H3 Hong Kong/8/68); experiment: kinetic binding to HA trimer (instrument not stated)
T3 construct: Trimeric HA

Binder | fold reactivity over background [1] | fold reactivity over background [2] | fold reactivity over background [3] | fold reactivity over background [4] | fold reactivity over background [5] | Kd [7] | other results
TRL854 (antibody, V domains shown) VH: QVQLVESGAEVKKPGASVRVSCKGSGYTFTAYHMHWVRQAPGQGFEWVGWINPNSGATYYTSTFEGRVTMTRDTSITTAYMELSSLRSDDTAVYYCATDIVVERDASLGGFNSYGMDVWGQGTTVTVSS VL: DIEMTQSPLSLPVTPGEPASISCRSSQSLLHSNGYNHLAWYLQKPGRSPHLLIYLASTRASGVPDRFSGSGSGTDFTLKISRVEAEDVGIYYCMQSLQTSITFGQGTRLEIKR | 25.6 fold over background | 25.6 fold over background | 25.6 fold over background | 25.6 fold over background | 25.6 fold over background | 8.8 nM | Kd [6]: < 1 nM
TRL846 (antibody, V domains shown) VH: QVQLVESGGGLVQPGGSLRLSCTVSGFTFNSYAMNWVRQAPGKGLEWVSGIRGSGENTYYAETVKGRFTISRDNSKNTLYLEMNSLRAEDTAVYYCARKWGRMTVFGVATDQLYYFDYWGQGTLVTVSS VL: DITLTQSPATLSVSPGERATLSCRASQSVSSNLAWYQQKPGQAPRLLIYGASNRATDIPARFSGSGSGTEFTLTISSLQSEDFAVYYCQQFNDWPFLTFGGGTKVEIKR | 25.6 fold over background | 25.6 fold over background | 25.6 fold over background | 25.6 fold over background | 25.6 fold over background | 0.85 nM | Kd [8]: < 1 nM
TRL053 (antibody, V domains shown) VH: QVQLVQSGAEVRKPGSSVKVSCKVSGGIIRKYAINWVRQAPGQGLEWMGGIIAIFNTANYAQKFQGRVTITADESTSTVYMELSSLRSEDTALYYCARGMNYYSDYFDYWGQGSLVTVSP VL: EIVLTQSPGTLSLSPGERATLSCRASQSVRSNNLAWYQHKPGQAPRLLIFGASSRATGIPDRFSGSGSGTDFTLTISRLEPEDFAVYYCQQYGSSPALTFGGGTKVEIKR | 1.1 fold over background | 1.6 fold over background | 2.8 fold over background | 1 fold over background | 1 fold over background |  | Kd [9]: 12.3 nM; koff [9]: 6.8e-05 s⁻¹; kon [9]: 5500 M⁻¹ s⁻¹; IC50 (ug/ml), MDCK monolayer microneutralization assay [10]: 0.9 µg/mL; IC50 (ug/ml), MDCK monolayer microneutralization assay [11]: 0.1 µg/mL; IC50 (ug/ml), MDCK monolayer microneutralization assay [12]: 0.3 µg/mL
TRL579 (antibody, V domains shown) VH: QVQLVQSGAEVKKPGASVKVSCKTSGYTFTAYTIHWVRQAPGQRLEWMGWINAGNGHTKYSQRFKGRVTITRDTSARTTYMELRSLTSEDTALYFCARGPETYYYDKTNWLNSHPDEYFQHWGHGTQVTVSS VL: DIQMTQSPSTLSASVGDRVTITCRASQTINNYLAWYQQKPGKAPKLLIYKASSLESGVPSRFSGSGSGTEFTLTISSLQPDDFATYYCQEYNNDSPLTFGGGTKVEIKR | 1 fold over background | 1.1 fold over background | 1 fold over background | 3.2 fold over background | 1 fold over background |  | IC50 (ug/ml), MDCK monolayer microneutralization assay [13]: 1.9 µg/mL; IC50 (ug/ml), MDCK monolayer microneutralization assay [14]: 1.1 µg/mL; IC50 (ug/ml), MDCK monolayer microneutralization assay [15]: 1 µg/mL; IC50 (ug/ml), MDCK monolayer microneutralization assay [16]: 0.6 µg/mL; IC50 (ug/ml), MDCK monolayer microneutralization assay [17]: 2.8 µg/mL; IC50 (ug/ml), MDCK monolayer microneutralization assay [18]: 15.5 µg/mL; IC50 (ug/ml), MDCK monolayer microneutralization assay [19]: 3.9 µg/mL; IC50 (ug/ml), MDCK monolayer microneutralization assay [20]: 0.9 µg/mL; IC50 (ug/ml), MDCK monolayer microneutralization assay [21]: 1.6 µg/mL; IC50 (ug/ml), MDCK monolayer microneutralization assay [22]: 0.8 µg/mL; IC50 (ug/ml), MDCK monolayer microneutralization assay [23]: 0.2 µg/mL; Kd [24]: 0.2 nM; koff [24]: 5.8e-05 s⁻¹; kon [24]: 250000 M⁻¹ s⁻¹
